Assay: protein stability index of a GFP-peptide fusion (GPS, HEK-293T) (PSI 1-6); higher = more stable
[1] = parent: NP_116010.1, c terminus: native
[2] = parent: NP_009172.2, c terminus: native
[3] = parent: NP_002788.1, c terminus: native
[4] = parent: NP_015628.1, c terminus: native
[5] = parent: NP_006221.1, c terminus: native

B1: PPEF2 WT (peptide)
chain: DHSGFISLDEFRQTWKLFSSHMNI
**Q.** Which protein stability index (parent: IOH82202_112, c terminus: a fixed tail appended) does the source give for B1 here?
**A.** 1.7

B2: BEX2 WT (peptide)
chain: HSLRAVSTDPPHHDHHDEFCLMP
**Q.** For B2, which protein stability index [1] is on record?
**A.** 2.48

B3: SNF8 WT (peptide)
chain: LPALFTDLYSQEITAEEAREALP
**Q.** For B3, which protein stability index [2] is on record?
**A.** 2.74

B4: PSMB5 addT (peptide)
chain: DGWIRVSSDNVADLHEKYSGSTPT
**Q.** For B4, which protein stability index [3] is on record?
**A.** 3.53

B5: TRPA1 WT (peptide)
chain: EQRNSRWNTVLRAVKAKTHHLEP
**Q.** For B5, which protein stability index [4] is on record?
**A.** 3.03

B6: TRPA1 addT (peptide)
chain: EQRNSRWNTVLRAVKAKTHHLEPT
**Q.** With B6 as the protein, how does the protein stability index [4] read?
**A.** 4.19

B7: RIPK4 WT (peptide)
chain: VSVNAQTLDGRTPLHLAAQRGHYR
**Q.** Which protein stability index (parent: IOH82264_100, c terminus: a fixed tail appended) does the source give for B7 here?
**A.** 3.37

B8: RIPK4 WT (peptide)
chain: RERMELLEEAKKMEMAKFRYILPV
**Q.** With B8 as the protein, how does the protein stability index (parent: IOH82264_11, c terminus: a fixed tail appended) read?
**A.** 2.38

B9: RIPK4 WT (peptide)
chain: AAWQGHLPIVKLLAKQPGVSVNAQ
**Q.** Which protein stability index (parent: IOH82264_97, c terminus: a fixed tail appended) does the source give for B9 here?
**A.** 2.35

B10: TRIB1 WT (peptide)
chain: SYVRSRKRLREEEAARLFKQIVSA
**Q.** Which protein stability index (parent: IOH82269_29, c terminus: a fixed tail appended) does the source give for B10 here?
**A.** 2.13

B11: PTPRD WT (peptide)
chain: PVVSMDLDPQPITDEEEGLIWVVG
**Q.** For B11, which protein stability index (parent: IOH82190_140, c terminus: a fixed tail appended) is on record?
**A.** 3.88

B12: PPEF2 WT (peptide)
chain: AFKAAALIQRWYRRYVARLEMRRR
**Q.** For B12, which protein stability index (parent: IOH82202_4, c terminus: a fixed tail appended) is on record?
**A.** 3.14

B13: PTPRD WT (peptide)
chain: ELDELLKEISRKRRSIRYGREVEL
**Q.** Which protein stability index (parent: IOH82190_126, c terminus: a fixed tail appended) does the source give for B13 here?
**A.** 2.18

B14: CDKL4 WT (peptide)
chain: AVKKFVESEDDPVVKKIALREIRM
**Q.** For B14, which protein stability index (parent: IOH82195_6, c terminus: a fixed tail appended) is on record?
**A.** 2.87

B15: SNF8 addA (peptide)
chain: LPALFTDLYSQEITAEEAREALPA
**Q.** Which protein stability index [2] does the source give for B15 here?
**A.** 3.42

B16: TRPA1 addA (peptide)
chain: EQRNSRWNTVLRAVKAKTHHLEPA
**Q.** Which protein stability index [4] does the source give for B16 here?
**A.** 4.26

B17: RIPK4 WT (peptide)
chain: VIDLFDEQGLSALHLAAQGRHAQT
**Q.** With B17 as the protein, how does the protein stability index (parent: IOH82264_122, c terminus: a fixed tail appended) read?
**A.** 2.72

B18: PSMB5 addA (peptide)
chain: DGWIRVSSDNVADLHEKYSGSTPA
**Q.** Which protein stability index [3] does the source give for B18 here?
**A.** 2.51

B19: PTPRD WT (peptide)
chain: LTKLREMGREKCHQYWPAERSARY
**Q.** With B19 as the protein, how does the protein stability index (parent: IOH82190_223, c terminus: a fixed tail appended) read?
**A.** 2.36

B20: POLD2 WT (peptide)
chain: CQPISFSGFGAEDDDLGGLGLGP
**Q.** For B20, which protein stability index [5] is on record?
**A.** 2.27

B21: PSMB5 WT (peptide)
chain: DGWIRVSSDNVADLHEKYSGSTP
**Q.** Which protein stability index [3] does the source give for B21 here?
**A.** 2.42

B22: POLD2 addA (peptide)
chain: CQPISFSGFGAEDDDLGGLGLGPA
**Q.** For B22, which protein stability index [5] is on record?
**A.** 2.54

B23: TRIB1 WT (peptide)
chain: EIGTSDQIVPEYQEDSDISSFFC
**Q.** With B23 as the protein, how does the protein stability index (parent: IOH82269_63, c terminus: native) read?
**A.** 2.87

B24: PPEF2 WT (peptide)
chain: FIPSSHNDRDFLTRIFTEDRFAQD
**Q.** Which protein stability index (parent: IOH82202_13, c terminus: a fixed tail appended) does the source give for B24 here?
**A.** 2.05

B25: BEX2 addA (peptide)
chain: HSLRAVSTDPPHHDHHDEFCLMPA
**Q.** Which protein stability index [1] does the source give for B25 here?
**A.** 3.18

B26: POLD2 addT (peptide)
chain: CQPISFSGFGAEDDDLGGLGLGPT
**Q.** For B26, which protein stability index [5] is on record?
**A.** 2.6

B27: SNF8 addT (peptide)
chain: LPALFTDLYSQEITAEEAREALPT
**Q.** For B27, which protein stability index [2] is on record?
**A.** 3.79

Reference: the supplement of paper PMC10567573
